Experimental data reported in patent US20240254229A1 (Molecular Partners, published 2024).
Where a chain is given by its changes, count along the chain named.

T1: human scCD3εγ (scCD3εγ_Avi-Bio) (human, biotin on the C-terminal Avi-tag (in vitro, BirA) where the biotinylated form was used)
T1 construct: Used for all SPR and HTRF results on human CD3; also called recombinant human CD3; human CD3
T1 chain: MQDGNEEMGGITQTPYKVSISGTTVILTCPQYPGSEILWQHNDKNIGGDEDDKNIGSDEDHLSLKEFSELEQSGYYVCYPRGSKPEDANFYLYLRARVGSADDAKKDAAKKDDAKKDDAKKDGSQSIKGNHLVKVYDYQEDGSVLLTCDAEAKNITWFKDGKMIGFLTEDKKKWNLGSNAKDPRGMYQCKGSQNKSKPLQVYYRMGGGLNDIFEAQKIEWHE

T2: biotinylated extracellular domains of human CD123 (uniprot ID 26951), Fc format (human, UniProt P26951 19-305, biotinylated)
T2 construct: extracellular domain
T2 sequence (looked up): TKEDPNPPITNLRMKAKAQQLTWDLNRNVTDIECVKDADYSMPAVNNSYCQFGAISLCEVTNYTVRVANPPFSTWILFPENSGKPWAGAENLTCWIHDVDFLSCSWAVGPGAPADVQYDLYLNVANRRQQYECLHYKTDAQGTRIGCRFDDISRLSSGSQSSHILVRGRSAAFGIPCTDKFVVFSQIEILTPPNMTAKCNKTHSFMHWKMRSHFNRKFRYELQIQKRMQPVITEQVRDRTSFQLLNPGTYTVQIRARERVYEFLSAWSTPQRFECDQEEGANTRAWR

B1: DARPin® protein #9 (designed binder)
chain: DLGKKLLEAARAGQDDEVRILMANGADVNALDWLGHTPLHLAAYEGHLEIVEVLLKNGADVNAIDDNNGFTPLHLAAIDGHLEIVEVLLKNGADVNAQDKFGKTAFDISIDNGNEDLAEILQKAAGSPTPTPTTPTPTPTTPTPTPTGSDLGDKLLLAATSGQDDEVRILLAAGADVNAKDYDGDTPLHLAADEGHLEIVEVLLKAGADVNAKDYSGSTPLHAAAAYGHLEIVEVLLKAGADVNAQDVFGYTPADLAAYVGHEDIAEVLQKAAGSPTPTPTTPTPTPTTPTPTPTGSDLGQKLLEAAWAGQDDEVRELLKAGADVNAKNSRGWTPLHTAAQTGHLEIFEVLLKAGADVNAKNDKRVTPLHLAAALGHLEIVEVLLKAGADVNARDSWGTTPADLAAKYGHQDIAEVLQKAA
notes: CD123-CD33-CD3 ankyrin repeat protein, no half-life extension; also called DARPin® #9; not shown: N-terminal His-tag
B2: DARPin® protein #10 (designed binder)
chain: B1 chain with D312L, E317I, N362T, D363N, S396T, Q411R
notes: CD123-CD33-CD3 ankyrin repeat protein, no half-life extension; also called DARPin® #10; not shown: N-terminal His-tag
B3: DARPin® protein #37 (designed binder)
chain: DLGWKLLLAASRGQDDEVRILLAAGADVNAKDIDEGYTPLHIAAYYGHLEIVEVLLKAGADVNAKDRYGKTPLHLAAISGHEDIAEVLLKAGADVNAQDDKGDTPADLAADYGHEDIAEVLQKAA
notes: CD33-specific domain
B4: DARPin® protein #38 (designed binder)
chain: DLGVKLLRAAFHGQDDEVRILLAAGADVNAKDTDGETPLHYAAQFGHLEIVEVLLKAGADVNAKDAYGATPLHWAAWHGHLEIVEVLLKAGADVNAQDVSGATPADLAAKVGHEDIAEVLQKAA
notes: CD33-specific domain
B5: DARPin® protein #25 (designed binder)
chain: DLGDKLLLAATSGQDDEVRILLAAGADVNAKDYDGDTPLHLAADEGHLEIVEVLLKAGADVNAKDYSGSTPLHAAAAYGHLEIVEVLLKAGADVNAQDVFGYTPADLAAYVGHEDIAEVLQKAAGSPTPTPTTPTPTPTTPTPTPTGSDLGQKLLEAAWAGQDDEVRILLAAGADVNAKNSRGWTPLHTAAQTGHLEIFEVLLKAGADVNAKNDKRVTPLHLAAALGHLEIVEVLLKAGADVNARDSWGTTPADLAAKYGHGDIAEVLQKLN
notes: CD33-CD3; not shown: N-terminal His-tag
B6: DARPin® protein #26 (designed binder)
chain: DLGKKLLEAARAGQDDEVRILMANGADVNALDWLGHTPLHLAAYEGHLEIVEVLLKNGADVNAIDDNNGFTPLHLAAIDGHLEIVEVLLKNGADVNAQDKFGKTAFDISIDNGNEDLAEILQKAAGSPTPTPTTPTPTPTTPTPTPTGSDLGQKLLEAAWAGQDDEVRILLAAGADVNAKNSRGWTPLHTAAQTGHLEIFEVLLKAGADVNAKNDKRVTPLHLAAALGHLEIVEVLLKAGADVNARDSWGTTPADLAAKYGHGDIAEVLQKLN
notes: not shown: N-terminal His-tag

Columns and labels:
[1] = target: T3, human CD3 on primary human pan-T cells (human, UniProt P07766 23-207; P09693 23-182; P04234 22-171; P20963 22-164); test: Mirrorball cytometry on primary human pan-T cells, 600 µM HSA
T3 construct: whole, on cells; Native complex on T cells isolated from PBMC; also called CD3 on Pan-T cells
T3 sequence (P07766 23-207, chain 1 of 4): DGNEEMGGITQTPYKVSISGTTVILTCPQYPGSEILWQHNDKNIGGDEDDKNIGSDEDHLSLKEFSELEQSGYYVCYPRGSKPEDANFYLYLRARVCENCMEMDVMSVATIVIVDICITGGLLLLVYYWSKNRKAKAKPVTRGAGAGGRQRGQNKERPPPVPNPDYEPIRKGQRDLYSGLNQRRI
T3 sequence (P09693 23-182, chain 2 of 4): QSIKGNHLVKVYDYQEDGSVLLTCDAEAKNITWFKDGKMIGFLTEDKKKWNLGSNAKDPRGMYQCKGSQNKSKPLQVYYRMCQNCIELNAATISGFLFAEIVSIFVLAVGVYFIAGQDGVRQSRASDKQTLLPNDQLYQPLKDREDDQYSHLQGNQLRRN
T3 sequence (P04234 22-171, chain 3 of 4): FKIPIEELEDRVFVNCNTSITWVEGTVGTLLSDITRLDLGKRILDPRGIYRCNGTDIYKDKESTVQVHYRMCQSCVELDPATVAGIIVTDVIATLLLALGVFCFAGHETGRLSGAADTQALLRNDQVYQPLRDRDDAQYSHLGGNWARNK
T3 sequence (P20963 22-164, chain 4 of 4): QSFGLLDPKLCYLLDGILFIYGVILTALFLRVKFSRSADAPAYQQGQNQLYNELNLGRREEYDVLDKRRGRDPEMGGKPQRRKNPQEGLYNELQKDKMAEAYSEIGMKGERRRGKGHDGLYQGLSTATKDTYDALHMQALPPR
Experimental: The determination of CD3 binding was performed with primary human T cells using Mirrorball laser scanning imaging cytometry. Therefore, primary T cells were isolated from human peripheral blood mononuclear cells (PBMCs) using a pan-T cell purification kit (Miltenyi Biotec). A titration of DARPin® protein #7, DARPin® protein #8 and DARPin® protein #9 and DARPin® protein #10, formatted into a trispecific format (including CD33 and CD123 binding ankyrin repeat domains), DARPin® protein #11, DARPin® protein #12, DARPin® protein #13 and DARPin® protein #14 UN tetraspecific format (including an additional ankyrin repeat domain binding specifically to human serum albumin) were incubated with 50′000 pan-T cells per well in presence of 600 μM human serum albumin (to mimic physiological serum concentration) for 30 minutes at 4° C. Two benchmark T-cell engagers, AMG330 and flotetuzumab were applied as controls, targeting CD33 or CD123. After washing, CD3 binding was detected by 1:100-diluted anti-penta-His Alexa Fluor 488 antibody (Qiagen). After 30 min incubation at 4° C., cells were washed and resuspended in Cytofix fixation buffer (BD Biosciences) and counterstained by 5 μM DRAQ5 (Abcam) for 15 min at RT. Median of mean fluorescence intensities of Alexa Fluor 488 binding on far-red counterstained cells were measured by Mirrorball using Cellista software (SPT Labtech) and data was plotted using GraphPad Prism 8.

[2] = target: T1, human scCD3εγ (scCD3εγ_Avi-Bio); test: SPR (ProteOn), biotinylated scCD3εγ on NLC chip, DARPin as analyte
Experimental: The binding affinities of four purified ankyrin repeat proteins on recombinant human CD3 target were analyzed using a ProteOn instrument (BioRad) and the measurement was performed according standard procedures known to the person skilled in the art. For that, DARPin® protein #7, DARPin® protein #8 and DARPin® protein #9 and DARPin® protein #10 of the invention were subcloned and expressed as described above into derivatives of the pQE30 (Qiagen) expression vector, containing an N-terminal His-tag, CD33 and CD123 binding ankyrin repeat domains, followed by one of the four CD3 specific ankyrin repeat protein constructs.
(§1) Briefly, biotinylated human scCD3εγ was diluted in PBST (PBS, pH 7.4 containing 0.005% Tween 200) and coated on a NLC chip (BioRad) to a level of around 700-1400 resonance units (RU). The interaction of ankyrin repeat protein and human CD3 was then measured by injecting 300 μl running buffer (PBS, pH 7.4 containing 0.005% Tween 200) containing serial dilutions of ankyrin repeat proteins covering a concentration range between 64 nM and 4 nM for multi-trace SPR measurements, followed by a running buffer flow for at least 10 minutes at a constant flow rate of 60 μl/min (off-rate measurement). The regeneration was performed using 30 μl of 10 mM Glycine pH 2. The signals (i.e. resonance unit (RU) values) of the interspots and a reference injection (i.e. injection of running buffer only) were subtracted from the RU traces obtained after injection of ankyrin repeat protein (double-referencing). While binding was too weak for DARPin® protein #7, binding parameters (KD, on-rate, off-rate) against CD3 were determined for affinity matured constructs. On-rates (kₒₙ) and dissociation constants (KD) are given only as approximation because binding equilibrium was not appropriately reached even at highest samples concentration, leading to non-optimal fits for on-rates.
Dissociation constants (KD) were calculated from the estimated on- and off-rates using standard procedures known to the person skilled in the art.

[3] = target: T4, biotinylated extracellular domain of human CD33 (SEQ ID NO: 87), Fc and Avi tagged (human, UniProt P20138 18-259, biotinylated with BirA-GST (Avi tag)); test: crude extract HTRF, 6 nM biotinylated hCD33
T4 construct: also called hCD33; human target hCD33
T4 sequence (P20138 18-259 R69G): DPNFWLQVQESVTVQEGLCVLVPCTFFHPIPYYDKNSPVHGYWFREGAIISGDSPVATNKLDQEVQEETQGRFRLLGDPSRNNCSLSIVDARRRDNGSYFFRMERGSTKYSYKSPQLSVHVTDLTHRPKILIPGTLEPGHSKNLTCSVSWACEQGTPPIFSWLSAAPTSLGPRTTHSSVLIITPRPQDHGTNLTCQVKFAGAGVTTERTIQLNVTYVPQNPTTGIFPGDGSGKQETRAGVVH
From the text: Similarly, individual selected ankyrin repeat proteins specifically binding to hCD33 in solution were identified by a Homogeneous Time Resolved Fluorescence (HTRF) assay using crude extracts of ankyrin repeat protein-expressing Escherichia coli cells using standard protocols. Ankyrin repeat protein clones selected by ribosome display were cloned into derivatives of the pQE30 (Qiagen) expression vector (pMPDV045), which contains a C-terminal CD3 binding designed ankyrin repeat protein followed by a Flag tag, transformed into E. coli XL1-Blue (Stratagene), plated on LB-agar (containing 1% glucose and 50 μg/ml ampicillin) and then incubated overnight at 37° C. […]
The extract of each lysed clone was applied as a 1:1000 dilution (final concentration) in PBSTB (PBS supplemented with 0.1% Tween 20® and 0.2% (w/v) BSA, pH 7.4) together with 6 nM (final concentration) biotinylated hCD33 (full-length or splice variant of ECD CD33), 1:400 (final concentration) of anti-strep-Tb HTRF antibody-FRET donor conjugate (Cisbio) and 1:400 (final concentration) of anti-6His-D2 antibody FRET acceptor conjugate (Cisbio) to a well of 384 well plate and incubated for 60 minutes at RT. The HTRF was read-out on a Tecan M1000 using a 340 nm excitation wavelength and a 665±10 nm emission filter. […]

[4] = target: T5, biotinylated extracellular domains of human CD33 (Speed BioSystems, cat #YCP2045) (human, UniProt P20138 18-259, biotinylated); test: SPR (ProteOn), biotinylated target on chip
T5 construct: extracellular domain
T5 sequence (P20138 18-259): as the sequence (P20138 18-259 R69G) above, with G52R counted along it
Experimental: as §1
(§2) The binding affinities of two purified ankyrin repeat proteins on recombinant human CD33 and CD123 target respectively were analyzed using a ProteOn instrument (BioRad) and the measurement was performed according standard procedures known to the person skilled in the art. For that, DARPin® protein #25 (with binding specificity for CD33 and CD3), DARPin® protein #26 (with binding specificity for CD123 and […]) of the invention were subcloned and expressed as described above into derivatives of the pQE30 (Qiagen) expression vector, containing an N-terminal His-tag, CD33 or CD123 binding ankyrin repeat domains respectively, followed by one of the four CD3 specific ankyrin repeat protein constructs. The following steps were performed as described in A above. Briefly, biotinylated extracellular domains of human CD33 (provided by Speed BioSystems, Lot no cat #YCP2045) as target protein was used for the assessment of DARPin® protein #25 and biotinylated extracellular domains of human (uniprot ID 26951) for the assessment of DARPin® protein #26 accordingly.

[5] = target: T2, biotinylated extracellular domains of …; test: SPR (ProteOn), biotinylated target on chip
Experimental: as §1, §2

Binder | EC50 [1] [nM] | Kd [2] [nM] | koff [2] [s⁻¹] | kon [2] [M⁻¹ s⁻¹] | binding result [3] | further results
B1 | 50 to 100 | ~15 | 0.0013 | ~89000 |  | 
B2 | 5 to 15 | ~6 | 0.00041 | ~82000 |  | 
B3 |  |  |  |  | binds | 
B4 |  |  |  |  | binds | 
B5 |  |  |  |  |  | Kd [4]: 7.3 nM; koff [4]: 0.0304 s⁻¹; kon [4]: 4.2e+06 M⁻¹ s⁻¹
B6 |  |  |  |  |  | Kd [5]: 9.5 nM; koff [5]: 0.017 s⁻¹; kon [5]: 1.79e+06 M⁻¹ s⁻¹
